# Test results from article PMC5449618 (Nucleic Acids Research, 2017).
# B1: Sumo–BRPF2 (1–205) (domain or fragment, human, UniProt O95696 1-205, looked up)
# chain: MRRKGRCHRGSAARHPSSPCSVKHSPTRETLTYAQAQRMVEIEIEGRLHRISIFDPLEIILEDDLTAQEMSECNSNKENSERPPVCLRTKRHKNNRVKKKNEALPSAHGTPASASALPEPKVRIVEYSPPSAPRRPPVYYKFIEKSAEELDNEVEYDMDEEDYAWLEIVNEKRKGDCVPAVSQSMFEFLMDRFEKESHCENQKQG
# B2: Sumo–BRPF2 (1–80) (domain or fragment, human, UniProt O95696 1-80, looked up)
# chain: MRRKGRCHRGSAARHPSSPCSVKHSPTRETLTYAQAQRMVEIEIEGRLHRISIFDPLEIILEDDLTAQEMSECNSNKENS
# Target: HBO1 MYST domain (residues 336–611), without tag, co-expressed with BRPF2 (human, UniProt O95251 336-611)
# Assay: crystal structure
# HBO1 MYST domain (residues 336–611), without tag, co-expressed with BRPF2, sequence (O95251 336-611): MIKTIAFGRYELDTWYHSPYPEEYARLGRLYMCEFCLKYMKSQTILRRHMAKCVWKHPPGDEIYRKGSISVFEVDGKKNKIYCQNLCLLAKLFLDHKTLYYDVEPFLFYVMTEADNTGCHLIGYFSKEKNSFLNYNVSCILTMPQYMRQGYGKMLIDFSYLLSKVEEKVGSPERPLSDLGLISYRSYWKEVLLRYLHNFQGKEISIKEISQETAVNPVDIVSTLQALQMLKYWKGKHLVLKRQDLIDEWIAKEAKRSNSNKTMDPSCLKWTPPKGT
row,stoichiometry N,Binder
1,1,"LTYAQAQRMVEIEIEGRLHRISIFDPLEIILEDDLTAQEMSECNSNKENS (domain or fragment, human, UniProt O95696 31-80, looked up) [BRPF2 (31–80), His6 tag removed, co-expressed with the HBO1 MYST domain]"

# Target: GST-fused HBO1 MYST domain (residues 336–611) (human, UniProt O95251 336-611)
# Assay: pull-down
# GST-fused HBO1 MYST domain (residues 336–611), sequence (O95251 336-611): as the sequence (O95251 336-611) above
row,binding result,Binder
1,binds,"LTYAQAQRMVAIAIAGRLHRISIFDPLEIILEDDLTAQEMSECNSNKENS (domain or fragment, human, UniProt O95696 31-80, looked up) [Sumo–BRPF2 (31–80) E41A/E43A/E45A]"
2,binds,"LTYAQAQRMVEIEIEGRLHRISIFDPLEIILAAALTAQEMSECNSNKENS (domain or fragment, human, UniProt O95696 31-80, looked up) [Sumo–BRPF2 (31–80) E62A/D63A/D64A]"
3,binds,"LTYAQAQRMVKIKIKGRLHRISIFDPLEIILEDDLTAQEMSECNSNKENS (domain or fragment, human, UniProt O95696 31-80, looked up) [Sumo–BRPF2 (31–80) E41K/E43K/E45K]"
4,binds,"LTYAQAQRMVEIEIEGRLHRISIFDPLEIILKKKLTAQEMSECNSNKENS (domain or fragment, human, UniProt O95696 31-80, looked up) [Sumo–BRPF2 (31–80) E62K/D63K/D64K]"
5,binds,"MVEIEIEGRLHRISIFDPLEIILEDDLT (domain or fragment, human, UniProt O95696 39-66, looked up) [Sumo–BRPF2 (39–66)]"
6,binds,B1
7,binds,B2
8,binds,"MVEIEIEGRLHRISIFDPLEIILE (domain or fragment, human, UniProt O95696 39-62, looked up) [Sumo–BRPF2 (39–62)]"
9,binds,"LTYAQAQRMVEIEIEGRLHRISIFDPLEIILE (domain or fragment, human, UniProt O95696 31-62, looked up) [Sumo–BRPF2 (31–62)]"
